In article PMC10397247:

Columns and labels:
Test in all cases: two-hybrid library CCmax;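 note: natural log of median RNA to DNA barcode read ratio; higher means stronger binding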
[1] = target: T1, 4H1000-AA
T1 chain: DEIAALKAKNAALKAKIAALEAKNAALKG

[2] = target: T2, 4H1035-AA; conditions: mean of both orientations
T2 chain: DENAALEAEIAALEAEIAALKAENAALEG

[3] = target: T3, 4H1064-AA; conditions: mean of both orientations
T3 chain: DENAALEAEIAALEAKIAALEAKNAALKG

[4] = target: T4, 4H1109-AA; conditions: mean of both orientations
T4 chain: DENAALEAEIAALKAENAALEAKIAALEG

[5] = target: T5, 4H1146-AA; conditions: mean of both orientations
T5 chain: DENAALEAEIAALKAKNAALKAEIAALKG

[6] = target: T6, 4H1348-AA; conditions: mean of both orientations
T6 chain: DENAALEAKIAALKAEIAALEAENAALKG

[7] = target: T7, 4H1391-AA; conditions: mean of both orientations
T7 chain: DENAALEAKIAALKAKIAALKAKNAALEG

[8] = target: T8, 4H146-AA; conditions: mean of both orientations
T8 chain: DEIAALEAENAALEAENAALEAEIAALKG

[9] = target: T9, 4H1809-AA; conditions: mean of both orientations
T9 chain: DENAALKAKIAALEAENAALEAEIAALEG

[10] = target: T10, 4H1854-AA; conditions: mean of both orientations
T10 chain: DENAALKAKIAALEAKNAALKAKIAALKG

[11] = target: T11, 4H189-AA; conditions: mean of both orientations
T11 chain: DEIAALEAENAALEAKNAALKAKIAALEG

[12] = target: T12, 4H2248-AA
T12 chain: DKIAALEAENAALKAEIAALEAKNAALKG

[13] = target: T13, 4H2283-AA; conditions: mean of both orientations
T13 chain: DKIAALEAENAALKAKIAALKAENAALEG

[14] = target: T14, 4H2580-AA
T14 chain: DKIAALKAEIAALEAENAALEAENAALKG

[15] = target: T15, 4H2713-AA; conditions: mean of both orientations
T15 chain: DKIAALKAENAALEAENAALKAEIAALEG

[16] = target: T16, 4H2742-AA; conditions: mean of both orientations
T16 chain: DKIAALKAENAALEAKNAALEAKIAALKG

[17] = target: T17, 4H2948-AA; conditions: mean of both orientations
T17 chain: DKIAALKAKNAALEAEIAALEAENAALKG

[18] = target: T18, 4H2991-AA; conditions: mean of both orientations
T18 chain: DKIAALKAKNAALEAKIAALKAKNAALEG

[19] = target: T19, 4H3029-AA; conditions: mean of both orientations
T19 chain: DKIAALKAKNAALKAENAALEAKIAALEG

[20] = target: T20, 4H3066-AA; conditions: mean of both orientations
T20 chain: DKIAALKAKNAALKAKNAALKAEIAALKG

[21] = target: T21, 4H3102-AA; conditions: mean of both orientations
T21 chain: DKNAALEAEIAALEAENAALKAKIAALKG

[22] = target: T22, 4H3121-AA; conditions: mean of both orientations
T22 chain: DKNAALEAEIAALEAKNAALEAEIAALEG

[23] = target: T23, 4H3417-AA; conditions: mean of both orientations
T23 chain: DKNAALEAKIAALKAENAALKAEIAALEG

[24] = target: T24, 4H3446-AA; conditions: mean of both orientations
T24 chain: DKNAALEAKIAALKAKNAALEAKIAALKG

[25] = target: T25, 4H3591-AA; conditions: mean of both orientations
T25 chain: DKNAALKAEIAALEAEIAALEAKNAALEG

[26] = target: T26, 4H3628-AA; conditions: mean of both orientations
T26 chain: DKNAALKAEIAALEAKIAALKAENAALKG

[27] = target: T27, 4H3666-AA; conditions: mean of both orientations
T27 chain: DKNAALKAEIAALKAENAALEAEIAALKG

[28] = target: T28, 4H3709-AA; conditions: mean of both orientations
T28 chain: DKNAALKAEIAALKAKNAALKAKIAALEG

[29] = target: T29, 4H391-AA; conditions: mean of both orientations
T29 chain: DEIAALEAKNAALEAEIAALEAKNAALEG

[30] = target: T30, 4H3920-AA; conditions: mean of both orientations
T30 chain: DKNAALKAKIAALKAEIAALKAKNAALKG

[31] = target: T31, 4H3939-AA; conditions: mean of both orientations
T31 chain: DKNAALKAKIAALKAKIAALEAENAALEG

[32] = target: T32, 4H428-AA; conditions: mean of both orientations
T32 chain: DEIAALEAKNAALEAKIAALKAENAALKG

[33] = target: T33, 4H478-AA; conditions: mean of both orientations
T33 chain: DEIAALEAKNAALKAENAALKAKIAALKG

[34] = target: T34, 4H497-AA; conditions: mean of both orientations
T34 chain: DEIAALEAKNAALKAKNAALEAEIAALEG

[35] = target: T35, 4H656-AA
T35 chain: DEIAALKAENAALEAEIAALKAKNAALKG

[36] = target: T36, 4H675-AA; conditions: mean of both orientations
T36 chain: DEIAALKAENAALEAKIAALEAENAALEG

[37] = target: T37, 4H971-AA; conditions: mean of both orientations
T37 chain: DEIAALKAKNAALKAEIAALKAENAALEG

[38] = target: T38, 4H1110-AA
T38 chain: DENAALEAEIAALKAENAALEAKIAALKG

[39] = target: T39, 4H1136-AA; conditions: mean of both orientations
T39 chain: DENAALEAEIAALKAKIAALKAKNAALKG

[40] = target: T40, 4H1257-AA; conditions: mean of both orientations
T40 chain: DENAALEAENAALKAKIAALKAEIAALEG

[41] = target: T41, 4H140-AA; conditions: mean of both orientations
T41 chain: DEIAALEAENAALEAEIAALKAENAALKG

[42] = target: T42, 4H1802-AA; conditions: mean of both orientations
T42 chain: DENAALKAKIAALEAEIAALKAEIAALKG

[43] = target: T43, 4H2600-AA; conditions: mean of both orientations
T43 chain: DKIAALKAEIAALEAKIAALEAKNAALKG

[44] = target: T44, 4H2721-AA; conditions: mean of both orientations
T44 chain: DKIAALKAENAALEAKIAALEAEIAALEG

[45] = target: T45, 4H2750-AA; conditions: mean of both orientations
T45 chain: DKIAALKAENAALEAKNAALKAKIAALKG

[46] = target: T46, 4H2898-AA; conditions: mean of both orientations
T46 chain: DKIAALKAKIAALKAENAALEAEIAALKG

[47] = target: T47, 4H3020-AA; conditions: mean of both orientations
T47 chain: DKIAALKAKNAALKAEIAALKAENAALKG

[48] = target: T48, 4H3365-AA; conditions: mean of both orientations
T48 chain: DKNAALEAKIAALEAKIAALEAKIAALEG

[49] = target: T49, 4H355-AA; conditions: mean of both orientations
T49 chain: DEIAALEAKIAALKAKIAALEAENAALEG

[50] = target: T50, 4H3651-AA; conditions: mean of both orientations
T50 chain: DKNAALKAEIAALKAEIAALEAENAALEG

[51] = target: T51, 4H3705-AA; conditions: mean of both orientations
T51 chain: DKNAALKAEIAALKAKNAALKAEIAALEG

[52] = target: T52, 4H3782-AA; conditions: mean of both orientations
T52 chain: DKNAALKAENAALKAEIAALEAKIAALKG

[53] = target: T53, 4H465-AA; conditions: mean of both orientations
T53 chain: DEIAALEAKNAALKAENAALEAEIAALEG

[54] = target: T54, 4H486-AA; conditions: mean of both orientations
T54 chain: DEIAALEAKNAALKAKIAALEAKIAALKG

[55] = target: T55, 4H535-AA; conditions: mean of both orientations
T55 chain: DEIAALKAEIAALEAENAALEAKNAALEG

[56] = target: T56, 4H58-AA; conditions: mean of both orientations
T56 chain: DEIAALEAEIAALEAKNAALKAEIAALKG

[57] = target: T57, 4H895-AA; conditions: mean of both orientations
T57 chain: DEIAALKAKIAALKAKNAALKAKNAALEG

[58] = target: T58, 4H_APH; conditions: mean of both orientations
T58 chain: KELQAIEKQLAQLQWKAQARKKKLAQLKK

[59] = target: T59, 4H_BCR; conditions: mean of both orientations
T59 chain: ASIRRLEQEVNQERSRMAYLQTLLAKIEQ

[60] = target: 4H_GCN4
4H_GCN4, sequence (chain, as listed by the source): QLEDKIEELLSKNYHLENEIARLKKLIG

[61] = target: GCN2_T

B1: 4H1000-AA (peptide)
chain: DEIAALKAKNAALKAKIAALEAKNAALKG
Binder B1 has an interaction score [1] of -0.42, an interaction score [2] of -1.26 and an interaction score [3] of -0.567. For the same binder, the interaction score [4] was 1.3, the interaction score [5] was -1.52 and the interaction score [6] was -1.24. The interaction score [7] was -1.56, the interaction score [8] was -0.33 and the interaction score [9] was 0.471. It also gave an interaction score [10] of -1.79, an interaction score [11] of -0.933 and an interaction score [12] of -1.32. For the same binder, the interaction score [13] was 0.468, the interaction score [14] was -1.04 and the interaction score [15] was -1.49. The interaction score [16] was -1.09, the interaction score [17] was 0.224 and the interaction score [18] was -1.19. The interaction score [19] was -0.99, the interaction score [20] was -1.96 and the interaction score [21] was -0.226. For the same binder, the interaction score [22] was -0.524, the interaction score [23] was -0.644 and the interaction score [24] was -1.24. The interaction score [25] was -0.703, the interaction score [26] was -1.21 and the interaction score [27] was 0.777. For the same binder, the interaction score [28] was -1.07, the interaction score [29] was 0.223 and the interaction score [30] was -1.89. The interaction score [31] was -1.65, the interaction score [32] was -0.137 and the interaction score [33] was -2.48. The interaction score [34] was -1.74, the interaction score [35] was 0.604 and the interaction score [36] was 2.34. The interaction score [37] was -0.95.

B2: 4H1110-AA (peptide)
chain: DENAALEAEIAALKAENAALEAKIAALKG
B2 was tested, and the interaction score [38] was 0.405, the interaction score [39] was -1.36 and the interaction score [40] was -0.798. The interaction score [41] was -1.14, the interaction score [42] was -1.32 and the interaction score [43] was -1.01. For the same binder, the interaction score [44] was -0.718, the interaction score [45] was -0.176 and the interaction score [46] was 1.96. It also gave an interaction score [47] of 1.51, an interaction score [48] of -1.2 and an interaction score [49] of -0.0666. The interaction score [50] was -1.2, the interaction score [51] was 2.63 and the interaction score [52] was -0.707. It also gave an interaction score [53] of -1.11, an interaction score [54] of 1.93 and an interaction score [55] of -1.39. For the same binder, the interaction score [56] was 1.28, the interaction score [57] was 0.133 and the interaction score [58] was -1.53. The interaction score [59] was 0.0686, the interaction score [60] was -0.932 and the interaction score [61] was -0.988.
